Biological target: T1, FLAG-Prrc2a-P2 (residue 761-1408) (mouse, UniProt Q7TSC1 761-1408)
T1 construct: Prrc2a p2 fragment, residue 761-1408, amplified from a mouse cDNA library; holds the region rich in glycine, arginine and glutamic acid (GRE domain); the legend of the pull-down names FLAG-Prrc2a-P2 beside P1, P3 and P4, which fits the proteins purified from HEK293T cells; also called P2 fragment; GRE domain; source: HEK293T, transfected, purified (FLAG beads, eluted with 3xFLAG peptide)
Test: pull-down; in vitro GST pull-down with purified GST-YTHDF2 and purified FLAG-Prrc2a fragments
Settings: both partners purified

T1 sequence (Q7TSC1 761-1408): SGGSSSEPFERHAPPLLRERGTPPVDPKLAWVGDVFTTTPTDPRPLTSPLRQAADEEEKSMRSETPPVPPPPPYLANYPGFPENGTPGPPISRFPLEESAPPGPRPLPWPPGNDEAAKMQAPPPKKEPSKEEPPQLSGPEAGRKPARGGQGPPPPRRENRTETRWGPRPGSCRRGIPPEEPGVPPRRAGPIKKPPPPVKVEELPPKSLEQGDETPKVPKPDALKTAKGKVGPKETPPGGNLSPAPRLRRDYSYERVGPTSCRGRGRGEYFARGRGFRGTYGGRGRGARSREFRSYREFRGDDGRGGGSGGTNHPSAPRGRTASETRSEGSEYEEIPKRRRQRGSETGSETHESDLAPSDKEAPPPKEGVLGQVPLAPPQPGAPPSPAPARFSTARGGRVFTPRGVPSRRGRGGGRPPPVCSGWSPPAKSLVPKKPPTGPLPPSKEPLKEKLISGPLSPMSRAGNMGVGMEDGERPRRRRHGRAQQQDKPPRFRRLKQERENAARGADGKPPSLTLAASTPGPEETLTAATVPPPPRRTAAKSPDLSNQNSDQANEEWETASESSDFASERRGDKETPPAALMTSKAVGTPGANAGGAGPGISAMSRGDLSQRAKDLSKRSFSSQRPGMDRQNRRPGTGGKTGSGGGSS

B1: GST-YTHDF2 (natural protein, human, UniProt Q9Y5A9 1-579, looked up)
chain: MSASSLLEQRPKGQGNKVQNGSVHQKDGLNDDDFEPYLSPQARPNNAYTAMSDSYLPSYYSPSIGFSYSLGEAAWSTGGDTAMPYLTSYGQLSNGEPHFLPDAMFGQPGALGSTPFLGQHGFNFFPSGIDFSAWGNNSSQGQSTQSSGYSSNYAYAPSSLGGAMIDGQSAFANETLNKAPGMNTIDQGMAALKLGSTEVASNVPKVVGSAVGSGSITSNIVASNSLPPATIAPPKPASWADIASKPAKQQPKLKTKNGIAGSSLPPPPIKHNMDIGTWDNKGPVAKAPSQALVQNIGQPTQGSPQPVGQQANNSPPVAQASVGQQTQPLPPPPPQPAQLSVQQQAAQPTRWVAPRNRGSGFGHNGVDGNGVGQSQAGSGSTPSEPHPVLEKLRSINNYNPKDFDWNLKHGRVFIIKSYSEDDIHRSIKYNIWCSTEHGNKRLDAAYRSMNGKGPVYLLFSVNGSGHFCGVAEMKSAVDYNTCAGVWSQDKWKGRFDVRWIFVKDVPNSQLRHIRLENNENKPVTNSRDTQEVPLEKAKQVLKIIASYKHTTSIFDDFSHYEKRQEEEESVKKERQGRGK
notes: human YTHDF2 gene subcloned into a pGEX expression vector with GST-tag; also called recombinant GST-YTHDF2; source: E. coli BL21 (DE3), purified (FPLC, Profinity GST cartridge)
binding result: binds
